US20210102001A1 (CHIMAGEN BIOSCIENCES, published 2021)

Legend:
human CD19 (His-tagged) = molecular target: T1, human CD19 (His-tagged) (human, UniProt P15391 20-291); assay: SPR (BIAcore); human CD19 captured on anti-His antibody chip, antibody at 5 concentrations
T1 construct: Captured on chips carrying anti-histidine antibodies
T1 sequence (looked up): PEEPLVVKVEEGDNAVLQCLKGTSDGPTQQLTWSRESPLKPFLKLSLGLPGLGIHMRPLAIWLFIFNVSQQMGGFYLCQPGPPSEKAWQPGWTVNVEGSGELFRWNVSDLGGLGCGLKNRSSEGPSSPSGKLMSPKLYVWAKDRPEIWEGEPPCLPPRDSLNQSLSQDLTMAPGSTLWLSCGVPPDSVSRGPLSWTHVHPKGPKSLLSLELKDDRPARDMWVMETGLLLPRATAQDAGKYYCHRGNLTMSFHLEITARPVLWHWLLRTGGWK
Experimental: (§1) Binding affinity for human CD3E or human CD19 of the CD3×CD19×CD8 tri-specific antibody was tested by BIAcore. Kₐ, Kd and KD were calculated from the experimental results and used to evaluate affinity of the antibodies for human CD3E and CD19. CD3E and CD19 molecules as ligands were immobilized to chips conjugated with anti-histine antibodies. Antibody molecules in five different concentrations were analyzed for their affinity for CD19. Affinity for human CD3E was examined using the same method.

human CD3E = molecular target: T2, human CD3E (human, UniProt P07766 23-126, limits assumed); assay: SPR (BIAcore); human CD3E captured on anti-His antibody chip, antibody at 5 concentrations
T2 construct: Captured on chips carrying anti-histidine antibodies, 'using the same method' as the His-tagged CD19
T2 sequence (P07766 23-126 limits assumed): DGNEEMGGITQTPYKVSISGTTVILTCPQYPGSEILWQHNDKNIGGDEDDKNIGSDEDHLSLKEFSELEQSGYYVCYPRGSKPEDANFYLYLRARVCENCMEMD
Experimental: as §1

B1: Antibody #55, CD3×CD19×CD8 tri-specific antibody (other)
chain 1: EIVLTQSPATLSVTPGERATLSCSASSSVSYMHWYQKKPGQAPRLLIYDTSKLASGIPARFSGSGSGTDFTLTISSLEPEDFAVYYCFQGSVYPFTFGCGTKLEIKRTVAAEVQLVESGGGLVQPGGSLRLSCAASGFTFNTYAMNWVRKAPGKGLEWVGRIRSKYNNYATYYADSVDKGRFTISRDDSKNSLYLQMNSLKTEDTAVYYCVRHGNFGNSYVSWFAYWGQGTLVTVSS
chain 2: EAVVTQEPSLTVSPGGTVTLTCRSSTGAVTTSNYANWVQDKPGQAPRGLIGGTNKRAPWTPARFSGSLLGGKAALTITGAQPEDEAGYYCALWYSNLWVFGGGTKLTVLRTVAAQVQLQESGPGLVKPSQTLSLTCTVSGGSISTSGMGVGWIRDHPGKCLEWIGHIWWDDDKRYNPALKSRVTISVDTSKNQFSLKLSSVTAADTAVYYCARMELWSYYFDYWGQGTTLTVSSASEPKSDKTHTCPPCPAPPVAGGPSVPLPPPKPKDTLMISRTPEVTCVVVDVSQEDPEVKFNWYVDGVGVHNAKTKPREEQFNSTYRVVSVLTVLHQDWLNGKEYKCKVSNKGLPSSIEKTISKAKGQPREPQVYTLPPCRDELTKNQVSLWCLVKGFYPSDIAVEWESNGQPENNYKTTPPVLDSDGSFFLYSKLTVDKSRWQQGNVFSCSVMHEALHNHYTQKSLSLSPGK
heavy: QVQLVESGGGVVQPGRSLRLSCAASGPTFSDFGMNWVRKAPGKGLEWVALIYYDGSNKFYADSVKGRFTISRDNSKNTLYLQMNSLRAEDTAVYYCAKPHYDGYYHFFDSWGQGTLVTVSSASTKGPSVFPLAPGSSKSTSGTAALGCLVKDYFPEPVTVSWNSGALTSGVHTFPAVLQSSGLYSLSSVVTVPSSSLGTQTYICNVNHKPSNTKVDKKVEPKSCDKTHTCPPCPAPPVAGGPSVFLFPPKPKDTLMISRTPEVTCVVVDVSQEDPEVKFNWYVDGVEVHNAKTKPREEQFNSTYRVVSVLTVLHQDWLNGKEYKCKVSNKGLPSSIEKTISKAKGQPREPQVCTLPPSRDELTKNQVSLSCAVKGFYPSDIAVEWESNGQPENNYKTTPPVLDSDGSFFLVSKLTVDKSRWQQGNVFSCSVMHEALHNRFTQKSLSLSPGK
light: not shown
notes: Tri-specific antibody of four chains
Kd (human CD19 (His-tagged)): 8.63 nM | Kd (human CD3E): 31.3 nM
